The values that follow come from patent US6677433B2 (The Regents of the University of California, priority 2001, dated 2004).

What all share (assay type): biochemical
One experiment addresses T1, glutaredoxin (Escherichia coli, UniProt P68688).
T1 construct: gift of Professor A. Holmgren
T1 sequence (P68688 1-85): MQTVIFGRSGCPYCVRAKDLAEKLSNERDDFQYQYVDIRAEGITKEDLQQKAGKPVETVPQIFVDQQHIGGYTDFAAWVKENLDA
In words: Reduction by glutaredoxin relative to thioredoxin (mBBr/SDS-PAGE, densitometric scanning). To be noted: glutathione reductase, NADPH. As to the method:
Direct reduction of the proteins under study was determined by a modification of the method of Crawford et al. (Crawford, N. A. et al. (1989), Arch. Biochem. Biophys. 271:223-239). The reaction was carried out in 100 mM potassium phosphate buffer, pH 7.1, containing 10 mM EDTA and 16% glycerol in a final volume of 0.1 ml. As indicated, 0.7 μg (0.1 μM) NTR and 1 μg (0.8 μM) thioredoxin (both routinely from E. coli were added to 70 μl of the buffer solution containing 1 mM NADPH and 10 μg (2 to 17 μM) of target protein. When thioredoxin was reduced by dithiothreitol (DTT, 0.5 mM), NADPH and NTR were omitted. Assays with reduced glutathione were performed similarly, but at a final concentration of 1 mM. After incubation for 20 min, 100 nmoles of mBBr were added and the reaction was continued for another 15 min. To stop the reaction and derivatize excess mBBr, 10 μl of 10% SDS and 10 μl of 100 mM β-mercaptoethanol were added and the samples were then applied to the gels. […]
This ability was tested, using glutaredoxin from E. coli and the seed proteins currently under study. Reduction activity was monitored by the mBBr/SDS polyacrylamide gel electrophoresis procedure coupled with densitometric scanning.

Experiment [1] addresses T2, trypsin (Bos taurus, UniProt P00760).
T2 construct: purchased Sigma Chemical Co. (St. Louis, Mo.) T8640
T2 sequence (P00760 24-246): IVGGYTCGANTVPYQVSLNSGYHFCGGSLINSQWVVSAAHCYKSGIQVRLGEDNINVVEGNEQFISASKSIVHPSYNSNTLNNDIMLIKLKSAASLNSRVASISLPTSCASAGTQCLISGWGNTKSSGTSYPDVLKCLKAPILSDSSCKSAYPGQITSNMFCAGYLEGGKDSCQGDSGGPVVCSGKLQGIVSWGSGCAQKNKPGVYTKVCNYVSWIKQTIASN
The experiment is described as follows: Trypsin inhibition assay after reduction of the inhibitors. As to the method: (§1) Unless indicated, the reduction of the trypsin inhibitors (0.4 mg/ml) was carried out in 0.1 ml of 20 mM sodium phosphate buffer, pH 7.9 containing 10 mM EDTA at 30° C. for 2 hours. The concentrations of thioredoxin, NTR, and NADPH were 0.024 mg/ml, 0.02 mg/ml, and 0.25 mM, respectively. […] Following reduction, aliquots of the inhibitor mixture were withdrawn either for determination of trypsin inhibitory activity or proteolytic susceptibility. In the subtilisin tests, the inhibitor mixture (50 μl) was directly mixed with subtilisin and incubated at room temperature for 1 hour. With the wheat protease preparation, the pH of the inhibitor mixture (50 μL) was first adjusted to 4.7 by mixing with 35 μl of 200 mM sodium acetate, pH 4.6; 10 μl of the wheat protease preparation was then added and incubation was continued for 2 hours at 37° C. To stop digestion with subtilisin, 2 μl of 100 mM phenylmethylsulfonyl fluoride (PMSF) and 10 μl of 10% SDS were added to the digestion mixture. With the plant protease preparation, digestion was stopped by adding an equal volume of SDS sample buffer [0.125 M Tris-HCl, pH 6.8, 4% (w/v) SDS, 20% (v/v) glycerol, 10% (v/v) β-mercaptoethanol, and 0.02% (w/v) bromophenol blue]. Proteolytic products were analyzed by electrophoresis with 12% or 16% SDS polyacrylamide slab gels (Laemmli, 1970). The dried slab gels were scanned with a laser densitometer (Pharmacia-LKB UltraScan XL) and the peak area of the KTI or BBTI protein band was obtained by integration with a Pharmacia GelScan XL software program.
(§2) Thioredoxin and NTR were assayed as previously described by Florencio et al. (1988). Trypsin activity was measured in 50 mM Tris-HCl, pH 7.9, by following the increase in absorbance at 253 nm with N-benzoyl-L-arginine ethyl ester as substrate (Mundy et al., 1984) or by the release of azo dye into the trichloroacetic acid (TCA)-soluble fraction from azocasein substrate (see below). For trypsin inhibition assays, trypsin (5 to 10 μg) was preincubated with appropriate amounts of KTI or BBTI for 5 minutes at room temperature in 50 mM Tris-HCl, pH 7.9 and proteolytic activity was then determined. While the two substrates yielded similar data, results are presented with only one substrate.
To determine the consequence of reduction by thioredoxin, the trypsin inhibitory activity of the oxidized and reduced forms of KTI and BBTI was compared. […] Similar results were obtained with DTT, a nonphysiological substitute for thioredoxin, and with thioredoxin reduced by lipoic acid, a naturally occurring dithiol.

Experiment [2] deals with T2, trypsin. In words: Heat stability of trypsin inhibitors (trypsin activity, azocasein). The protocol:
as §1, §2
The question arises as to whether reduction by thioredoxin yields similar results. The results as shown in TABLE XII provide a positive answer to this question. When heated at 80° C. for 15 minutes, the thioredoxin-reduced form of KTI completely lost its ability to inhibit trypsin, whereas its oxidized counterpart retained about half of the original activity (Table XII). […] Nonetheless, as with KTI, the reduced form of BBTI was fully inactivated by heat (Table XII). […]

B1: Soybean Kunitz: Kunitz soybean trypsin inhibitor (protein, UniProt P01070 25-205, looked up)
Trypsin inhibitor A: DFVLDNEGNPLENGGTYYILSDITAFGGIRAAPTGNERCPLTVVQSRNELDKGIGTIISSPYRIRFIAEGHPLSLKFDSFAVIMLCVGIPTEWSVVEDLPEGPAVKIGENKDAMDGWFRLERVSDDEFNNYKLVFCPQQAEDDKCGDIGISIDHDDGTRRLVVSKNKPLVVQFQKLDKESL
For the molecule B1, the “percentage reduction relative to E. coli thioredoxin” value with glutaredoxin is given as “ineffective”. Also, the “increase in trypsin activity effected by the NADP/thioredoxin system” value in the experiment with trypsin [1] was found to be 3 fold. The “Relative Trypsin Activity, inhibitor Reduced by DTT” value with trypsin [1] (DTT 1 mM, 30° C., 1 hour, no inhibitor = 100) is recorded as 68.6. Further, in the experiment with trypsin [1] (E. coli NTS, 30° C., 2 hours, no inhibitor = 100), the “Relative Trypsin Activity, inhibitor Reduced by NTS” value stood at 55.6. In the experiment with trypsin [1] (lipoic acid 0.4 mM and wheat thioredoxin h, 30° C., 1 hour), the “Relative Trypsin Activity, inhibitor Reduced by LA/Trx h” value stood at 40.5. In addition, the “Relative Trypsin Activity, inhibitor Oxidized” value with trypsin [1] (no inhibitor = 100, N-benzoyl-L-arginine ethyl ester) was 17.0. In the experiment with trypsin [2], the “Relative Trypsin Activity, inhibitor heated 15 min at 80° C., Oxidized” value is recorded as 52.3; the “Relative Trypsin Activity, inhibitor heated 15 min at 80° C., Reduced” value worked out at 98.7; the “Relative Trypsin Activity, inhibitor unheated, Reduced” value is 76.4. The “Relative Trypsin Activity, inhibitor unheated, Oxidized” value with trypsin [2] (no inhibitor = 100, azocasein) is listed as 26.6.
